The results in this text go back to US20240218071A1 (ANHUI BIOX VISION BIOLOGICAL TECHNOLOGY, published 2024).

Assay [1] concerns the target T1, human CD40 expressed on the cell surface (human, UniProt P25942 21-277).
T1 construct: whole, on cells; Used for transfected CHO-K cells, for transfected Jurkat reporter cells (Met1-Gln277) and for the natural CD40 on Ramos cells and iDC; also called CHO-K-huCD40 cells; CHO cells expressing CD40
Put plainly: flow cytometry on CHO-K-huCD40 cells, APC anti-human IgG secondary antibody. Here is the method: (§1) 100 μL of diluted anti-CD40 candidate antibody prepared in example 4.3 was added to the 96-well plate. After incubation at 4° C. for 30 min, the cells were washed 5 times with a FACS buffer (PBS+5% FBS+2% BSA), added with 100 μL of APC-labeled anti-human IgG secondary antibody, and then incubated at 4° C. for 30 min. The cells were then washed and tested by flow cytometry.

The target in assay [2] is T2, P17-His protein (human CD40 antigen) (human, UniProt P25942 21-193, limits assumed).
T2 construct: also called human CD40 antigen (P17-His)
Put plainly: BLI (Fortebio Octet RED96), antibody on Protein A sensor, P17-His 5-40 nM. Here is the method: In this example, the affinity of C8 parent antibody (C8-WT) and affinity variant antibody for human CD40 antigen (P17-His) was detected using an Fortebio Octet RED96 instrument.
Material preparation: 1 g of BSA and 500 μL of Tween 20 were added to 1000 mL of 1×PBS and mixed uniformly. The mixture was filtered, and then subpackaged and stored. 0.1 mL of glycine solution (0.1 M, pH 2.0) was pipetted, 0.9 mL of ultrapure water was added, and the mixture was mixed uniformly. The antibodies were diluted to 10 μg/mL with a KB buffer, and the antigens were diluted with a KB buffer to serial concentration gradients, i.e., 40 nM, 20 nM, 10 nM, 5 nM and 0 nM.
Experiment procedure: The sample plate (GreinierBio, PN655209) was tested after a sensor (Protein A sensor) was pre-wetted in the dark for at least 10 min, and after confirming the accuracy, the test was performed according to the preset programs. KB buffer was added at 200 μL/well to the wells of columns 1, 10 and 12 of sample plate 1; the glycine solution (0.01 M, pH 2.0) was added to the wells of column 11; the prepared sample solution was added to the wells of columns 2-8 (5 replicate wells for one sample); and P17-His was sequentially added to the wells of column 9 in a descending order of the concentration.

Assay [3] deals with T1, human CD40 expressed on the cell surface. Put plainly: flow cytometry on CHO-K-huCD40 cells, APC anti-human IgG secondary antibody. Here is the method:
as §1
This is another data set of the same source.

Assay [4] concerns the target T3, full-length mouse CD40 expressed on CHO-K cells (mouse, UniProt P27512 20-289).
T3 construct: whole, on cells; also called CHO-K-mouseCD40 cells; mouse CD40 antigen
Kind of assay: flow cytometry on CHO-K-mouseCD40 cells, FITC anti-human IgG Fc secondary antibody. Here is the method: The cross-reactivity of the affinity variant candidate antibody prepared in example 4.3 to mouse CD40 was tested using artificially constructed CHO-K cells expressing full-length mouse CD40 (Uniprot #P27512) (CHO-K-mouseCD40 cells). The CHO-K cells expressing mouse CD40 were seeded into a 96-well plate at 1.0×10⁵ cells/well. 100 μL of diluted affinity variant candidate antibody and the control antibody (APX005) were added to the 96-well plate, respectively. […] The cells were then washed and tested by flow cytometry.

For assay [5], the target named is T1, human CD40 expressed on the cell surface. Put plainly: cell-based or functional assay.

Where two headings read alike, the source gives them in different places.

T1 sequence (P25942 21-277): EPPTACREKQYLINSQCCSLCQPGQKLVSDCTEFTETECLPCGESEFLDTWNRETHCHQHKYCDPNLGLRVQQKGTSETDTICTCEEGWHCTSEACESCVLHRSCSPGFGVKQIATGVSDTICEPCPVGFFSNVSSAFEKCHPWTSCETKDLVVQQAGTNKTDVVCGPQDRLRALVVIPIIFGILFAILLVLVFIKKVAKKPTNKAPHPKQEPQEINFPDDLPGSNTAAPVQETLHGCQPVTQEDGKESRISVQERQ
T2 sequence (P25942 other isoform, or with tags, fused parts or gaps limits assumed): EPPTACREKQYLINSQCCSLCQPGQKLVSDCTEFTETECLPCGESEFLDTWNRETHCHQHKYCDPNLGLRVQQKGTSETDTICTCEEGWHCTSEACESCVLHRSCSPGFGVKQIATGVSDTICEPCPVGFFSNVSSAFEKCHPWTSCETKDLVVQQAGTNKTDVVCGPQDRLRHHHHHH
T3 sequence (P27512 20-289): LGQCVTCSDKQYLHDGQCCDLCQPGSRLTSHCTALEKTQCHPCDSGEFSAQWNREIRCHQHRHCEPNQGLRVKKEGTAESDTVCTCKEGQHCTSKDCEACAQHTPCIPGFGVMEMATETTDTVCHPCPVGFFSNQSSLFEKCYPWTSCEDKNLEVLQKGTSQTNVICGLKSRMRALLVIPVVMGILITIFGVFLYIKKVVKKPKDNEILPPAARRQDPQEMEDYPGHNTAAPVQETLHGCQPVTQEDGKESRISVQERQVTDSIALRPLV

B1: APX005M (antibody, V domains shown)
VH: QVQLVESGGGVVQPGRSLRLSCAASGFSFSSTYVCWVRQAPGKGLEWIACIYTGDGTNYSASWAKGRFTISKDSSKNTVYLQMNSLRAEDTAVYFCARPDITYGFAINFWGPGTLVTVSS
VL: DIQMTQSPSSLSASVGDRVTIKCQASQSISSRLAWYQQKPGKPPKLLIYRASTLASGVPSRFSGSGSGTDFTLTISSLQPEDVATYYCQCTGYGISWPIGGGTKVEIK
Regarding B1, the “EC50 (read off the curve)” value in assay [1] was ~0.7 µg/mL. In addition, in assay [2], binding was put at a Kd of 6.3 nM, the koff came to 0.0124 s⁻¹ and the association rate constant (kon) stood at 1.98e+06 M⁻¹ s⁻¹. Besides, the “EC50 (read off the curve)” value in assay [3] is ~0.8 µg/mL.

B2: C8-8 antibody (antibody, V domains shown)
VH: EVQLLESGGGLVRPGGSLRLSCAASGFTFGSYEMNWVRQAPGKGLEWVSYISSSGETTDYADSVKGRFTVSRDNSKNLLYLQMNSLRAEDTAVYYCARDVFFFDSSGPPGAYGMDVWGQGTMVTVSS
VL: DIQLTQSPSSLTASVGDRVTITCRSSQGIRSSLAWYQQKPGKPPKLLIYGASSLEGGVPSRFSGSGSGTDFTLTISSLQPEDFATYYCQQLNSFPSTFGQGTKLEIK
Regarding B2, the binding result in assay [4] is listed as “binds”. In assay [2], the dissociation constant Kd was found to be 10.3 nM, the koff worked out at 0.011 s⁻¹ and the kon is 1.07e+06 M⁻¹ s⁻¹. Besides, the “EC50 (read off the curve)” value in assay [3] was ~0.7 µg/mL.

B3: C8-6 antibody (antibody, V domains shown)
VH: EVQLLESGGGLVRPGGSLRLSCAASGFTFGSYEMNWVRQAPGKGLEWVSYISSSGETTDYADSVKGRFTVSRDNSKNLLYLQMNSLRAEDTAVYYCARDVFFFDSSGSPGAYGMDVWGQGTMVTVSS
VL: DIQLTQSPSSLTASVGDRVTITCRSSQGIRSSLAWYQQKPGKPPKLLIYGASSLEGGVPSRFSGSGSGTDFTLTISSLQPEDFATYYCQQLNSFPSTFGQGTKLEIK
For B3, the “CD95 expression on Ramos cells without crosslinking agent (FACS)” value in assay [5] was ~10 times weaker than APX005. Moreover, the “EC50 (read off the curve)” value in assay [1] is ~0.8 µg/mL. Further, the binding result in assay [4] is given as “binds”. In addition, in assay [2], the Kd is 9.04 nM, the koff worked out at 0.00984 s⁻¹ and the kon amounted to 1.09e+06 M⁻¹ s⁻¹.

B4: C8-5 antibody (antibody, V domains shown)
VH: EVQLLESGGGLVRPGGSLRLSCAASGFTFGSYEMDWVRQAPGKGLEWVSYISSSGETTDYADSVKPRFTVSRDNSKNLLYLQMNSLRAEDTAVYYCARDVFFFDSSGDNGAYGMDVWGQGTMVTVSS
VL: DIQLTQSPSSLTASVGDRVTITCRSSQGIRSSLAWYQQKPGKPPKLLIYGGSSLEGGVPSRFSGSGSGTDFTLTISSLQPEDFATYYCQQLNSFPSTFGQGTKLEIK
As for B4, the 50% effective concentration (EC50 (read off the curve)) in assay [1] was ~0.8 µg/mL. In addition, the binding result in assay [4] is recorded as “no binding (tested: 20 µg/mL)”. In assay [2], the affinity, expressed as Kd, was 8.23 nM; the off-rate (koff) was determined as 0.00818 s⁻¹; the kon is 994000 M⁻¹ s⁻¹.

B5: C8-4 antibody (antibody, V domains shown)
VH: EVQLLESGGGLVRPGGSLRLSCAASGFTFGSYEMNWVRQAPGKGLEWVSYISSSGETTDYADSVKGRFTVSRDNSKNLLYLQMNSLRAEDTAVYYCARDVFFFDSSGPRGAYGMDVWGQGTMVTVSS
VL: DIQLTQSPSSLTASVGDRVTITCRSSQGIRSSLAWYQQKPGKPPKLLIYGASSLEGGVPSRFSGSGSGTDFTLTISSLQPEDFATYYCQQLNSFPSTFGQGTKLEIK
Consider B5, for which the “EC50 (read off the curve)” value in assay [1] was ~0.8 µg/mL. Further, the binding result in assay [4] was “no binding (tested: 20 µg/mL)”. Besides, in assay [2], the affinity, expressed as Kd, was 5.34 nM; the off-rate (koff) amounted to 0.00725 s⁻¹; the kon was found to be 1.36e+06 M⁻¹ s⁻¹.

B6: C8-3 antibody (antibody, V domains shown)
VH: EVQLLESGGGLVRPGGSLRLSCAASGFTAGSYEMNWVRQAPGKGLEWVSYISSSGETTDYADSVKGRFTVSRDNSKNLLYLQMNSLRAEDTAVYYCARDVFFFDSSGDNGAYGMDVWGQGTMVTVSS
VL: DIQLTQSPSSLTASVGDRVTITCRSSQGIRSSLAWYQQKPGKPPKLLIYGASSLEVGVPSRFSGSGSGTDFTLTISSLQPEDFATYYCQQLNSFPSTFGQGTKLEIK
As for B6, the “EC50 (read off the curve)” value in assay [1] was ~0.8 µg/mL. Further, the binding result in assay [4] is reported as “no binding (tested: 20 µg/mL)”. In assay [2], this molecule returned a Kd of 4.51 nM, a dissociation rate constant (koff) of 0.0111 s⁻¹ and an on-rate constant (kon) of 2.46e+06 M⁻¹ s⁻¹.

B7: C8-1 antibody (antibody, V domains shown)
VH: EVQLLESGGGLVRPGGSLRLSCAASGFTFGSYEMNWVRQAPGKGLEWVSYISSSGETTDYADSVKGRFTVSRDNSKNLLYLQMNSLRAEDTAVYYCARDVFFFDSSGDNGAYGMDVWGQGTMVTVSS
VL: DIQLTQSPSSLTASVGDRVTITCRSSQGIRSSLAWYQQKPGKPPKLLIYGASSLEGGVPSRFSGSGSGTDFTLTISSLQPEDFATYYCQQLASFPSTFGQGTKLEIK
B7: in assay [1], the half-maximal effective concentration (EC50 (read off the curve)) is ~0.8 µg/mL. In assay [4], the binding result was “binds”. In assay [2], this molecule returned a Kd of 12.7 nM, a koff of 0.0148 s⁻¹ and a kon of 1.16e+06 M⁻¹ s⁻¹.

B8: C8-7 antibody (antibody, V domains shown)
VH: EVQLLESGGGLVRPGGSLRLSCAASGFTFGSYEMNWVRQAPGKGLEWVSYISSSGETTDYADSVKGRFTVSRDNSKNLLYLQMNSLRAEDTAVYYCARDVFFFDSSGDNHAYGMDVWGQGTMVTVSS
VL: DIQLTQSPSSLTASVGDRVTITCRSSQGIRSSLAWYQQKPGKPPKLLIYGASSLEGGVPSRFSGSGSGTDFTLTISSLQPEDFATYYCQQLNSFPSTFGQGTKLEIK
For the molecule B8, the binding result in assay [4] is on record as “binds”. Moreover, in assay [2], binding was characterised by a dissociation constant (Kd) of 12.4 nM, the koff was found to be 0.0111 s⁻¹ and the kon came out at 895000 M⁻¹ s⁻¹. For the same molecule, the “EC50 (read off the curve)” value in assay [3] is ~0.9 µg/mL.

B9: C8-10 antibody (antibody, V domains shown)
VH: EVQLLESGGGLVRPGGSLRLSCAASGFTFGSYEMNWVRQAPGKGLEWVSYISSSGETTDYADSVKGRFTVSRDNSKNLLYLQMNSLRAEDTAVYYCARDVFFFDSSGFPGAYGMDVWGQGTMVTVSS
VL: DIQLTQSPSSLTASVGDRVTITCRSSQGIRSSLAWYQQKPGKPPKLLIYGASSLEGGVPSRFSGSGSGTDFTLTISSLQPEDFATYYCQQLNSFPSTFGQGTKLEIK
For the molecule B9, the “CD95 expression on Ramos cells without crosslinking agent (FACS)” value in assay [5] was ~10 times weaker than APX005. The binding result in assay [4] is listed as “binds”. In assay [2], this molecule registered a dissociation constant Kd of 6.82 nM, an off-rate (koff) of 0.00847 s⁻¹ and a kon of 1.24e+06 M⁻¹ s⁻¹. Further, the “EC50 (read off the curve)” value in assay [3] is ~0.9 µg/mL.

B10: C8-9 antibody (antibody, V domains shown)
VH: EVQLLESGGGLVRPGGSLRLSCAASGFTFGSYEMNWVRQAPGKGLEWVSYISSSGETTDYADSVKGRFTVSRDNSKNLLYLQMNSLRAEDTAVYYCARDVFFFDSSRPNGAYGMDVWGQGTMVTVSS
VL: DIQLTQSPSSLTASVGDRVTITCRSSQGIRSSLAWYQQKPGKPPKLLIYGASSLEGGVPSRFSGSGSGTDFTLTISSLQPEDFATYYCQQLNSFPSTFGQGTKLEIK
As to B10, the “CD95 expression on Ramos cells without crosslinking agent (FACS)” value in assay [5] was ~10 times weaker than APX005. Besides, the binding result in assay [4] is on record as “binds”. In addition, in assay [2], binding was put at a Kd of 9.27 nM, the off-rate (koff) worked out at 0.0112 s⁻¹ and the kon was found to be 1.21e+06 M⁻¹ s⁻¹. Also, the concentration for a half-maximal effect (EC50 (read off the curve)) in assay [3] is ~0.9 µg/mL.

B11: C8-2 antibody (antibody, V domains shown)
VH: EVQLLESGGGLVRPGGSLRLSCAASGFTFGSYEMNWVRQAPGKGLEWVSYISSSGETTDYADSVKGRFTVSRDNSKNLLYLQMNSLRAEDTAVYYCARDVFFFSPSGDNGAYGMDVWGQGTMVTVSS
VL: DIQLTQSPSSLTASVGDRVTITCRSSQGIRSSLAWYQQKPGKPPKLLIYGASSLEGGVPSRFSGSGSGTDFTLTISSLQPEDFATYYCQQLNSFPSTFGQGTKLEIK
Regarding B11, the “CD95 expression on Ramos cells without crosslinking agent (FACS)” value in assay [5] is ~10 times weaker than APX005. Further, the “EC50 (read off the curve)” value in assay [1] was ~0.8 µg/mL. For the same molecule, the binding result in assay [4] is listed as “binds”. For the same molecule, in assay [2], the affinity, expressed as Kd, was 11.9 nM; the off-rate constant (koff) is 0.0111 s⁻¹; the kon turned out to be 932000 M⁻¹ s⁻¹.
